The NTF2 design screens of Basanta et al. (2020)

Assay: protease stability score; higher = more stable; yeast display proteolysis, trypsin and chymotrypsin;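 note: log10 excess protease needed over predicted unfolded state with 0 meaning unfolded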

Sequence | protease stability score
DDEKARQQVREFIRAMETGDEDSMVQQLDENAHVHIGDHVWRGREQARNAFKEFVKQFDRIEVKRVEYRNGDVVIDAVANVNGVRVRIIFKIHIHNGRIKNLRIEYRDEEEKKQLDG | 1.99
DDEKARRWLHTMRDVINRGDPDKWRKLVDENVRLEIGDKEYHGREDARKWMKELRDQVDEIHIKTISAHGDKIEVTMEYKHNGRTRRITVVARIRDGRIKMVQVRDS | 1.8
DDEKKAKSFVDDLRKILKTGDPEQMRDNADKDARLVIGDQTFHGREDAASKLVTLVKRFDHARFNVKSMTMHNGRIDVDMTFTLRVDGKNERHRVKITVEEHNGRLKMKEVHWS | 0.991
DDEKKARTLLKQLKEAFENNDEDRARQLMDKDVRLDIGDKTYHGREEAAEAWHRLVETVDHMDMKVRHIENRNGHMVVNADMVLHRDGRQKRLKVTFTARDDNGHAVLVHVSFD | 1.45
DDEKLANEFQTKFRSVMETNDEENMRKLADKDARLNVGDDDVHGREQVARYLAEVLRRVDTFRVRYEDVDIRNGQVRVTMEIHNNHNGSDRTDRVHLQMEVTGDTASLKRITEG | 0.259
DDEKLAREFQEKLREALRSGDDKKMVELMDKDARVVVGDKEIQGREEIAKTWATKATQADHVEVHIRNLRVENGRVTVNVEVRLNNNGQDRTNNNTLQNEVHNGHIHMKRQKEN | -0.274
DDEKLTTVLKELMKAFEKGDNKKFVDLLDKDVTIDYGDKKVHGRDEATEVFHKIRRQVDHVQVSDMKFENGRASIRATLHFNGKNMEVTFEAVIKNGRIKHAQVEVRDPDELRKMES | 1.03
DDEKQAHRAFEEWERALRTGNEEDLKRLADENVQVQVGDKQLDGREEVVKWMLDQAERVDHIQIDIKHLRIQNGRVEVNIIIQNNHNGQNQTHTMVVVMRNHNGNLYISDVQRR | 1.31
DDEKQHTIAKQLVEVLQQNDPDQQRDMVDENANIDIGDKTYQGQEDARKAMDELRRQIDHLTVTSFNVHNGRVEIRARARVNGTDVTVHIEAQLHNGRVKKMKIKYG | -0.196
DDEKQVREVVTDFIQALEEGDEKRVRQLIDPNASADVGDRKYHGREQVAEMVREQMDQVDHIEFTLRKVEIQGEEVVVRVEVVLNHNGQEKQIHMTLIFVVKNGHLQLKEIHQD | 1.37
DDEKRASKFAKKLVDAFKHGDPDRFSRMVDENVRFQVGDTQYHGREDAHNLMQELRDKVDHIHVRLTQLEVKGDKADVHMNLQYKHNGKNNDVRMRAVATDNNGRLLVTHFRIN | 1.26
DDEKREKILKTFVDLFMNGDEEDIQRMMDENARASVGDKTYHGQEQVNKALKEIRDQFDRVEVKHIHVSGDKFRINMVINVNGKHVHVEVEISVHNGRIHEISFDPEHLTKMRN | 0.444
DDEKRKDILRKIKENWKRNDHDFFKDMADPNVRAKVGDKLLHGREELEKELREFKKRADHVEIKHVDVTGDNAEVEADIDINGQKRVMVFQVEVHNGKIKHIELDPDDQRKVQK | 0.145
DDEKTRDLLRKAMRAFITGDPDTLRHLFDKDARARYGDKEVRGREQIQHQLREIRSTVDHIDVKDMEVQGNHATLSLSLVVNGREVKVRVKIVVHNGRAQSVTMDPHDIRKLNS | 1.29
DDEKVAEQIMNEVLTAIKNNDPQEAADNMDKDARAEVGDNDLTGRERLSKWWVTMANRADHITAHVDSVDEQGDKIHVVWKYTADINGQQVSKDIKFVVVRQNGRVKIKRIKND | 1.11
DDEKVKSFMKNVVRAWKHNNPDEMAKLADPNARAHVGDKEVHGRHQVKTMITEQLTRVDHVDIRHVHANGDKITIHATLNVNGRTRSVKIEIRFDNGKITDIRMDPDAVKEIKK | 0.199
DDEKVQKAAHNLIQAIKSGDEDRMRKLMDPNVRVVVGDKEVSGSDDAARFLRELRERVDHVEVKRVEAHNGRIKIDAVNRHNGHDHRFVLEAEVHNGTVKQIRIKEQ | 1.43
DDELEEQVKKWLENLKNNNEEELQKQMDPNAKMQYGDKEYHGMHDALKTLAQEDRELRYNVRIISINVQGDRVHITRRINRDHDGRPSQKKYKLNLRLHNGRNQHFREQEDG | -0.102
DDELEKLITRWLEALDTNNPRQVKSNIDPNVHIEIGDKKIHGREQAMKDIHHRLERMRVEFDLKSLDSHGERASFRFRLHIRFNGRPIDIDAEVSVQVHNGKFKKMSQRISEEQAKQMSE | 0.403
DDELHKLAEEFVTALQKGDPDRANSLFDPNAKFVVGDEVLHGREDFEKWLDELKHQMRIQFESVKIDKRPGRIIIDNVFRVHVNGKPDQIRIEIDIQVHNGKIKEVIYRMDPDKFREVMS | 1.3
DDELKRIVHQLMEALKHGDNDQWRKNVDPNVSVKIGDKELHGREEFARQIQRIKRELHLEIDIHDVKVKNGRADLDMTETRSENGQPETNRLRISYVIDNGKFKSVTLNIKQ | 0.222
DDELQHQVERFLTNIEHGDPDKIQRQVDKDVNARVGDETLHGSDQLKDTWHDTQRQMRFSFHVTKYDAREGHVDITAHITMDRNGKPESRQVRVRFNINNGKLREVDMQLRG | 1.04
DDELRHVAERFVQALDEGDPNELKEMADPNARMQVGDKYITGMETFVKHERKKMEKIRIEVVDFKANVNGDKVQVHFDVRFEVNGQPRRYSYVVIFQFRNGRISHVNVQVDPRQLKKNES | 1.04
DDELVRSAEHLFKVWQDGNPDEAKRYMDPNAELKVGDKTVHGRDDANRWVEQLQRELRYHFTINNVERQGNTVVIKATATEHHNGKPKTYSVDIEIEAQNGKVKLVIIRING | -0.09
DDEMIRVYREMQKALQDNDPERAKELMDPNAKLRYGDKVFHGREEFAKDMERRHHESRVQIRHLKVEDQGEKAVARFNEVNNSNGRPNSKSVSVELEAHNGKLVHVRAQDTK | -0.172

Sequence | protease stability score
DDEMKKVVSRFVEAEKQGNPEDLKRNADPNVKVQVGDKTVNGRDKWATDLHKRRRDIDVEREYKSVHLTGDHLTMDVEAVYNVNGTPHKMRVTLRVVAHNGKIKKMHVQLSEEELRRLDR | 0.229
DDENMSAFERWLHAVETGNPQKVKEQMDENAKLDVGEKDVTGMDEIRRQLEKEMKRMRVTIQRYDLQVHNGQVVVRQTVVNKNDGQPRRRTNVVHVDIRNGRIQRIIQRDDG | 0.42
DDENNKILEEYLKAEQTNDPDRAVELMRDDVRMQVGDHRVHGREEVRKRIHQIKDTMRVQIDDLRVTVKGESVVANLDAQVRINGQPVRFRASVRADFHNGKIVHHRVHISEEQQERLKK | 0.272
DDENQQHFAEKMATAVIKNDPDEIVRLADPNVQVQVGEKEVHGREEVHELMEELKDQADHVHLVSVHVSNGQVNIVVDVVVNGKRLRVTITVKFNNGKVRYIRVDPEFQRKMDK | -0.095
DDENRHMAEEMMQIFKHGDHDRHRQLIDPNVKVKIGDKEYHGMEKLVQRHKEEVDQIRFEVKTVSVHNQGDKLKVEWRYVADFNGRPHDVRDDYTIDVRNGKVRSIDYNVDPRELETLLR | -0.128
DDENRKRAEEWLQAVQEGNEHQVMELADPNVRFVIGDKTLHGREQLSEWVKRVHDQMRFSVEIKHVRVHGDKVLITVRHTANVNGKPFDDTLIIKVVINNGKFQRIELRVDPEKLKHLKT | 1.01
DDENRRFAERLMKVWRTNNEEDARTLFDKDVRFEIGDKVLHGKEQYAQSVRDIKKEMRFDARVRSIDVRGEKVVVLYDVEVQHNGRPQTKQVIFIANVHNGRIKEARVEDTQ | 0.271
DDENRRRAETWFRNIQDNNPELIRHMFDEDARLEVGDKEIQGREHFEEQMKRDVEEMRLDLKVKSVEVRGNDVTVKAEAQDDRNGHPRNFTFRIRIRYHNGRVKHVHMDRQG | 0.092
DDENVEIAEKIVKAEQSGDEDHLRELADPNARFHVGDKHVSGMEKFLKDFQHEFEELRFSIKVTSVTQSNGKVHMTATATRHRNGRPDSFTANRRFLFHNGKAKEVSQDNRK | -0.352
DDENVKKFAKELLHVIKDNDEDRFRKLAPPNVEAQYGDKTIRGRESAATQFSRVATRIDHVRLEHMTVQGEHVVMKMEVDVNGRNKQLRIVFHVRNGKITSFSMDPEAQRVNSQ | 0.594
DDEQANEIISIMETGDPDKLSNMADENAKIVIGDTQIHGREDYERVATILYKQIDHHHFEHLTFTGDKVVIVWQYVVNGKQVRQRVKFDVHNGRLKHMRMEFTDPEELKIVEEILS | 1.59
DDEQDAREFVKKFVDVMRENNPRELVKMADPNVKVDVGDHRLNGREDLERKRKREADRADHIDVKVTKLHVNGDTVQAHFSFTIRHDGRNERKSETIIARKHNGRVKIKSIKNS | -0.13
DDEQDKKAEKLVNTGNFHDMANNADPNARIVVGDKRFHGREQFHTFMESLQTTIDHLQIKDIKRRPNHVEADVVAEVNGRRITFVILMVVHNGRIKNVEFKFRDEEDERVMEQILR | 0.947
DDEQDRDFVQTMREAIDRGDFKKIARMADKDVKVVIGDKNVTGRETLTHLLKDFVDKFDHIRVRHIDAHNGSVDIDMTADHNGDKRQYRIRVNVSNGQVKEFQLKQT | 0.453
DDEQINEFVKVMKTNDFKRLMDQADPNVSVSIGNFTVKGDKQAQKAARDLEEQADHIQIDSLTAHDGRLDVTLQMVFNGRDIRMSIKAEAHNGRLKSMKFQATSEEIEKILDEVLR | -0.142
DDEQLKKLAQKFADNMQSGNEEEFDRMAPPEVRVQIGDKTYKGRDKVKEMMKRFRTTADHVRIESFEAHNGQITFNVIIQVNGKSHRIRLRIQARNGQVKQFDLNPDDQRKVEK | 0.18
DDEQRKDLAHDFLHAWKKGDEKLFDNLVDENVSAQYGDKTYHGRESISTFVRNYKKRADHFRVHDMQLSNGSVRMDVEAEVNGVDVRVTFHVFFHNGRVKSLQQDFTDEDVKRRHES | 0.604
DDEREREFEHFLRVVEEGNPEELKKLLDPNVRIEYGDKVIHGREEYAKRVHETVKELRFSMSIHDVKVNGDTVEVDATSSWTHNGQPNKDQNVLVIRFHNGKFKEIRHDKDR | 0.607
DDERITELVTRFEKALQRGDNDEMERLMDPNARVRYGDKEYHGREDIKRALKEEKKRVDHFRLESVRWKNGHVEIFMKFTVNGRTEHRVFDIQLHNGRMKEMELTTS | 1.15
DDERRARDLFKEHEDNWKNGNHEELVKQADEDARVDVGDKELHGRDDLRRENRRIVEQADHIRFDLKSLDVQGDKVTFDFVVKVDINGRTETRRVQEKFVVTNGRIRLKEATEG | -0.009
DDERRKKQVDTFNKAFEKGDESQIRKLFDKDAKARVGDKHYHGKEQVARMVKTFVHQVDHMQFKSVRVQGDKVRADVTVKVNGNTARFTIEIRIHNGKIQHASIDPRNMEKMKR | -0.073
DDERVQEQAKDFLKVVKEGNEEDLTKLFDPNASARYGDKTYHGREKVATAVAELAKKVDHFRVEHVEASGNKLHIDAYFQVNGNRRRIRFFIEIRNGKINTVIITSG | 1.62
DDESRVRKMLEDMREQLQTGNPERVADMADPNVEVTVGDKTLRGREDLVKYWRSIAENVDRVDLKLRSLNISGDQISVDFVERNNDNGQTRKHDASARFQKDNGRILATHIHVQ | 0.119
DDETAEKLAREFIEALKEGNEEQVRRLVDENVRVEVGDTTFHGREEAAKFAKEFKQHADHVEIRDVSVHGDKVELNLVLNVNGRERDVVVIVRVENGKIKEFQYREN | 1.22
DDETLNELVETLMKAWNQGNPDDLNKLIDKDAKIIIGETHIHGRDEFRKWADTLHRQVDHYQFDSVTAHNGRVRMHMKLRVNGVNVVVHVKVQAHNGRIKRMRMRWRNEEDKKKVEQ | 1.39
